Literature values in article PMC10348426.
Read-outs that look alike come from different tables or passages of the source.

Key:
[1] = biological target: FER ECD (Arabidopsis thaliana) (UniProt Q9SCZ4); experiment: MST
[2] = biological target: ER ECD (Arabidopsis thaliana) (UniProt Q42371)
[3] = biological target: ER ECD (Arabidopsis thaliana) (UniProt Q42371); remark: listed apart in the source

UniProt Q42371, sequence (Q42371 25-580): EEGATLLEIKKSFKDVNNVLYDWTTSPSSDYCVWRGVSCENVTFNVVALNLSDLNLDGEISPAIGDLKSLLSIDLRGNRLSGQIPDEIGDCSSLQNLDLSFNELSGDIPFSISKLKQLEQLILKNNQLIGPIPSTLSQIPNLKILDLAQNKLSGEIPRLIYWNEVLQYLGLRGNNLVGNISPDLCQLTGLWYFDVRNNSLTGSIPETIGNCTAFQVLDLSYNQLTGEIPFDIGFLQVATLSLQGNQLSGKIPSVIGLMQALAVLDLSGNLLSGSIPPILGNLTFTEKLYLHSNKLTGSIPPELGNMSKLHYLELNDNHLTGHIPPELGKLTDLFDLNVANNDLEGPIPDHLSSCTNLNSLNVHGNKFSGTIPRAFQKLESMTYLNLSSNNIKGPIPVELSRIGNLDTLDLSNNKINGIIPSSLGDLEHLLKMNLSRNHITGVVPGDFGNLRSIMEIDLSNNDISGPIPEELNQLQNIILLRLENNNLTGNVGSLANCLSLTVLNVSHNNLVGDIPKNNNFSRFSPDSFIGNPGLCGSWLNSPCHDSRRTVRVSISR
UniProt Q9SCZ4, sequence (Q9SCZ4 28-447): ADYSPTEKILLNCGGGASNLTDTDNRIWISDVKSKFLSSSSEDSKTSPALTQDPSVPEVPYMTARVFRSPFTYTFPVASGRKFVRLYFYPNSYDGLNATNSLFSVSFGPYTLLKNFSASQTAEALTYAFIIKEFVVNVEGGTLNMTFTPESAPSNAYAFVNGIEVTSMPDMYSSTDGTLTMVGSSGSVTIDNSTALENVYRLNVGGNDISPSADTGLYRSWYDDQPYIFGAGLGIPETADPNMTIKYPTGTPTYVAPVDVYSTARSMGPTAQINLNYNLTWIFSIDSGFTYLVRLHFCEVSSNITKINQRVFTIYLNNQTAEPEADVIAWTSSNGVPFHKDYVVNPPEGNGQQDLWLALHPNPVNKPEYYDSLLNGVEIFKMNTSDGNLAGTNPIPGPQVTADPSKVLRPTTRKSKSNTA

In the case of RALF33 (from UniProt Q8L9P8), the Kd [1] is given as 0.16 µM.

In the case of STOMAGEN (from UniProt Q9SV72), the Kd [2] is given as 0.044 µM.

For EPF2 (from UniProt Q8LC53), the Kd [3] is given as 0.059 µM.
